The text below walks through data of the DeepSol protein solubility set.

A short description of the data set: soluble on expression in E. coli; label from the status in PepcDB or PDB records.
On to “MTEQERLELEAAAFRRLVAHLDSRKDVQNIDLMNLSGFCRNCLSKWYKAAADEKHIDITLDDAREVVYGMPYSEWKANYQKEASAEQQAAFVKESKHD”, for which the “soluble on expression in E. coli” value is “soluble”.

On to “MTERKPEVIITYCTQCQWLLRAAWLAQELLSTFSDDLGKVSLEPATGGAFRITCDGVQIWERKADGGFPEAKVLKQRVRDQIDPERDLGHNDRTQLEHHHHHH”, for which the “soluble on expression in E. coli” value is listed as “soluble”.

For “MTESDVDSGSKKYLSNHKGIFIHVTLEELKRYHQLTPEQKRLIRAIVKTLIHNPQLLDESSYLYRLLASKAISQFVCPLCLMPFSSSVSLKQHIRYTEHTKVCPVCKKEFTSTDSALDHVCKKHNICVS”, the “soluble on expression in E. coli” value is given as “soluble”.

Consider “MTESEIHERFVDTYMHILKYVGDFVSVPTRPYKITFEAYTVMRMIATSEEPLTLVKIAKEQRVSRSAIARQINVLLDLKYIEQTTNTHDRRIKYLSLTPAGHKVEQEITTASEERFHQWVQVYGEKRASDTLRYINDAEQKATELGFSGFSGLHDKRGRHTEYSDPKTKN”, for which the “soluble on expression in E. coli” value is “not soluble”.

Turning to “MTESFAQLFEEFLNETQFQQGTIVKGTVVAIENGYVLVDAGLKSESAIPAEQFKNAAGELEVQVGSQVDVALDAVEDGFGETQLSREKAKRHEAWIVLEKAYEEAATVIGIINGKVKGGFTVELNGIRAFLPGSLVDVRPIRDTAHLENKELEFKVIKLDQKRNNVVVSRRAVIESESSVERDELLETLQEGTEVKGIVKNLTDYGAFVDLGGVDGLLHITDMAWKRVKHPSEIVNVGDEILVKVLKFDRDRTRVSLGLKQLGEDPWVAIAKRYPEGHKLSGRVTNLTDYGCFVEIEEGVEGLVHVSEMDWTNKNIHPSKVVNVGDEVEVMVLDIDEERRRISLGLKQCKANPWQSFAEAQAKGDKVTGKIKSITDFGIFIGLEGGIDGLVHLSDISWNVPGEEAVREFKKGDEISAVVLAVDAERERISLGIKQMENDPFNAYVSDNKKGALVNGTVTAVDAKGATIELEDGVEGYIRASEVSRDRIEDASLILNVGDKVEAKFTGVDRKNRVINLSIKAKDEAEEQEVMATLNKQDEAAFGNAMADAFKAAKGELEHHHHHH”, the “soluble on expression in E. coli” value is given as “not soluble”.

As for “MTEVKAMTKFYDVTFQELSGRSVVKTEVASDREPFDVWQDACASYSETELNIQINEDTFVTLNRHFVVRIDVKEVDGPVDKQVRRRDELMNVVNTLSNMGL”, the “soluble on expression in E. coli” value is “soluble”.

Turning to “MTEYERPQTPGVVTHDAVVLAGGAARRLGGADKPGVRVGGRALLDRVLAACAGAATTVVVADPRATARPVVWAREEPPGAGPVAALDAGLRRTTAAYVVVLSADLPFLDEETVRRLLSTLQASGTEGVLLTDPGGRDQPLVAAYRSAALRRELAELAAGHGTLAGLPLRVLVAALDLTRVSDPVASFDCDTWDDIAAARSRIREHGNVLDEWISAVKDELGIDLAVDTGILLDLARDAAHGVARPAAPLTTFLVGYAAAQAGGGPEAVAEAARKAAALALRWADEAAAEAGPDAGLEHHHHHH”, the “soluble on expression in E. coli” value is reported as “not soluble”.

Regarding “MTEYIQDAIPAKLAIAIANPIFPQLDSQLRAGRHISIEMLDEHAFLMDFQTELESFYRRYHVDLIRAPEGFFYLRPKASTLIARSAMSEMEMLVGKVLCYLYLSPERLAQQGIFSQDDVYEELLNLADENKLLKAVNPRSTGSDLDRAKLAEKVGGALRRLARIGIITRVGEQNSKKFIISEAVFRFGADVRAGDDPREVQLRLIRDGEATTPTLLTTEAIEFAEDGARDELEESEAELEHHHHHH”, the “soluble on expression in E. coli” value is “soluble”.

Regarding “MTEYNNNFDRELGWDDEITQDSVGFVQLVPGDYQFTVTNMERARHTPNPKSPGKLPACNKAVVTIQIETSEGIAQLTHNLFLHTTTEGMLSAFFGAIGQKKHGEPLKMNWNTVIGAKGVARINKRKGTGDYADREYDNIKSMIYADEVDWTKVLNKDVAQPQQMTHQQSAQPTYQGQQAQGTNFAQQPATQSYQQGQMQTPQQPQGGWGGF”, the “soluble on expression in E. coli” value is listed as “not soluble”.

Take “MTFSCEPAELRSRAKAAFIGLAVGDALGAPVEFMTTGEIKAKHGVLREIVGGGWLRLKPGQVTDDTDMSLCVARGVAKAGEWNLTAIAEEFAAWLRSKPVDVGDTCRRGIRNYMLKGLLETPFNQWDAGNGAAMRMLPTALFTMGDDNLLCRCAVEQGHLTHNHPLSDAACITLGRLVHLSVLGFSKPRLRREADRLTESHPTFSFEPYRGLATGYVVDTMQTVLHFFFRGRDFEECLVSTVNQGGDADTTGAIIGMVAGAYYGMEEIPRRWLKKMDRQVLDEIDTLSDLLISLSPALRSGNGILLPPA”: the “soluble on expression in E. coli” value is on record as “not soluble”.

Turning to “MTGERIEKVKINDEFAKSHFLTTQWRETKRQRHYKMPVTEQGLRERIESAIPQVYHIIVTDLSYGCGQSFDIVVVSDFFQGKSKLMRSRAVNKAVKEELQEIHAFSCKCYTEEEWSKIVV”, the “soluble on expression in E. coli” value is “soluble”.

For “MTGNSFNSMKDFLKQTGGYAVIDGGLATEFERHGADLNDPLWSAKCLVTSPHLIHTVHLDYLEAGADIISSASYQATIQGFEAKGFSREESESLLKKSVEIATEARNSYYDKCGTSSSMDDKILKKRPILVAASVGSYGAYLADGSEYSGIYGDSITLEKLKDFHRRRLQVLAESGADLIAFETIPNKIEAQAFADLLEEGDVKIPGWFSFNSKDGVNVVSGDSIKECISIAENCEKVVAVGINCTPPRFIEGLVLEIEKVTSKPILVYPNSGESYDADRKEWVENTGVGDEDFVSYVEKWMDAGVSLLGGCCRTTPTTIRAIHKRLVNRRSL”, the “soluble on expression in E. coli” value is given as “soluble”.

For the sequence “MTGTVYKLFGNRLLNARNQLDKNLLEMAMQMVYGKDMVTKSGDILIDIQLNKDGSLQSKHYTLDVGEVINSYNIDPLCECFKY”, the “soluble on expression in E. coli” value is “not soluble”.

Take “MTGVVTASKGLNVRKEANTSSQIIGILNSGESVEIIGEENGFYKITYKGQEAYASKNYINIFDGNSLEHHHHHH”: the “soluble on expression in E. coli” value is “not soluble”.

Regarding “MTIAIVIGTHGWAAEQLLKTAEMLLGEQENVGWIDFVPGENAETLIEKYNAQLAKLDTTKGVLFLVDTWGGSPFNAASRIVVDKEHYEVIAGVNIPMLVETLMARDDDPSFDELVALAVETGREGVKALKAKPFAG”, the “soluble on expression in E. coli” value is “soluble”.

Take “MTIAVDFDGTIVEHRYPRIGEEIPFAVETLKLLQQEKHRLILWSVREGELLDEAIEWCRARGLEFYAANKDYPEEERDHQGFSRKLKADLFIDDRNVGGIPDWGIIYEMIKEKKTFADIYSQQREENTSQKKKRKWLPF”: the “soluble on expression in E. coli” value was “soluble”.

As for “MTIDNYDNSKQDSSKYEVSGTGDGRNGDGGLPLVQCVARARIPTTQGPDIFLHLYSNNRDNKEHLAIVFGEDIRSRSLFRRRQCETQQDRMIRGAYIGKLYPGRTVADEDDRLGLALEFDDSTGELLASKATTWDAHNDTLVRIHSECYTGENAWSARCDCGEQFDRAGRLIACDHEPTSNIKGGNGHGVIVYLRQEGRGIGLGEKLKAYNLQDLGADTVQANLMLKHPVDARDFSLGKAILLDLGIGNVRLLTNNPEKIKQVDHAPYLKCVERVPMVPIHWTNSSEGIDSKEIEGYLRTKIERMGHLLTEPLKLHTNPQPTETSEAQNQNRMNSALSSTSTLAI”, the “soluble on expression in E. coli” value is “soluble”.

With “MTIEGGEQEVNVSSGGAWQSSIHCDWMTLSPSSGGIGITKVRIKVKKNTSGLPRNGRIAIISGKEEKGITVMQSSIEGEEDYLRLLNLTIDGVTTAVDYVNNSYYLPIDMDAVQPAKVKVEFGGIGVDFIKIGDKKIKSGENIALSLNPGQNIEMEAGNNTIDKIRSCRLIVTGVPVIEISAPEGIEDENKRPCDIVLTDPKRRTNNSVLRFESYAGIEFRGAGALRYAKKSFSFKLKNRQTNENQDAKLLGLREDQSWILDAMWLDCSKMRNRVCFDLWNDFNTLYYSNTEPEAVNATHGYPVEMILDGAYHGLYILSDRIDRKQLKMKKKGGYLYKGKEWTDECKLQGINTPYSNSKQAWQGFESDYPDEVGEIEFKYLSDLIQFFAAASKEEFAAQYEERLDVSSLIDYFIFINLLSAYDNTGRNVFWGIYNVNLTLLPKFIIQPWDLDGTLGRTWDAIKLDPEKGLGFDNGLILRNDAGSKYFRPFERIMNENPNNIKRRIYERLMAVKDNVLSPANLASKVDYYKRQIVESGALERDRQRWTGYSMYGYANPEEEAEYIKSWYIARLKYLETIFNNF”, the “soluble on expression in E. coli” value is listed as “not soluble”.

As to “MTIFRPGLLTTIQDLGRTGYLKYGVIVSGPMDEYAHRMANLLVGNDEKAALLEMTFIGPTIQFTSDQLIAMTGGDLSPTIDGHSVPMYRPVFVKKGAVLSFGRCKTGCRSYLAIGGGIDVPKVMNSRSTYLRAKIGGFQGRALVEGDELICGAPPEQTERLVKTCQKGIVHSFATTKWSVVSSQRSRDGAEKVVRVTVGSHYEQFSEASQHKFFSETFQVTSKSDRMGYRLKGPTLERLEEQELISEPISVGTIQVPADGNPIILMADRQTTGGYPRIAHVIAVDLPIIAQAKPGAAIRFQQASLKEAERLYIRRAREFNELKTSIYLQTRLEHHHHHH”, the “soluble on expression in E. coli” value is on record as “not soluble”.

On to “MTIKIALLGFGTVAKGIPYLLKENQHKLLSLEGEDIVIDKVLVRDNESRQRFINQGFTYNFVTEINTILQDSQIDIVVELMGGIEPAKTYLSQALGFGKHIVTANKDLIALHGKELMDLADARGLALFYEGAVAGGIPILRTLSHSFASDKMTRLLGILNGTSNFMLTKMFEEGWSYEQALKKAQELGYAESDPTNDVEGIDTAYKATILSQFGFGMPIDFDDVNYKGISSIRSEDVEVAQEMGFAIKLVADLRETPTGISVDVSPTLISQKHPLAAVNHVMNAVFIESIGIGQSLFYGPGAGQNPTATSVLADIIDISRSIRSQIKIKPMNTYHCPCRLSMQSDIFNEYYLAISLRNAEDSDTLGRYFEQENIGLKNVIEKALGDKQQEIYVLTDEVSQEKITQFIEEFPESGVIQLINVFKVIGGLEHHHHHH”, for which the “soluble on expression in E. coli” value was “soluble”.

With “MTIKKSQIEKWIAAQKRHRLSDTHVQMARELGLNPDKLGKIDNHRQEPWKAPLPEFIEEIFYKRFKKERPDVVKPLKQILKEQEIKTKTKKKEKEIRRKEREQEQINNGTDEVLTFQSPTPITE”, the “soluble on expression in E. coli” value is on record as “not soluble”.

As to “MTIKLVATDMDGTFLDGNGRFDMDRLKSLLVSYKEKGIYFAVASGRGFLSLEKLFAGVRDDIIFIAENGSLVEYQGQDLYEATMSRDFYLATFEKLKTSPYVDINKLLLTGKKGSYVLDTVDETYLKVSQHYNENIQKVASLEDITDDIFKFTTNFTEETLEDGEAWVNENVPGVKAMTTGFESIDIVLDYVDKGVAIVELVKKLGITMDQVMAFGDNLNDLHMMQVVGHPVAPENARPEILELAKTVIGHHKERSVIAYMEGL”, the “soluble on expression in E. coli” value is on record as “not soluble”.

With “MTIPLHTITSFRATFNPFSRSARPCRLLLSLLRNPSTTPASSPTHIDIQVTQLPRHSTQPPEMTVGFRGGKEVKIEVGKKQMKIGDVIEELARVGRSIEREETLKG”, the “soluble on expression in E. coli” value is listed as “not soluble”.

With “MTIREEGLIVKDQVLSCYLKGKRCLFVIVKILKDSSNSFLCTVQNKNGDQYVKKWFRKHENNEKLGRPTFKEVEKDWKENKESFMYPNVKALY”, the “soluble on expression in E. coli” value is given as “not soluble”.

On to “MTISRRSLLEGLLGAAAGLALLPVLGGRAGAALPREAEVVVVGAGAAGIAAARRIVAAGRKVIVVEAASEIGGRCVTDTTSFAAPFDRGARWLHNPDSNPLVRLARSSGFAVTPVAPGQKVRIGRRNARSRETEDFLAAFVRASRAISDASRGKSDISCAAALPNDLGDWAATIEYVLGPATTSKDLRALSAMDAVRTLDRTALLGCPQGVGSLLTQLASSLPIALSTPVKRIVWSGRDLAVETTAGRIGARAIIVTASTNVLTSGNLGFSPELPKRQLDAAARLSLGSIDRIALQFKGNPLGLSRDETIIERADDIRTATLVGNIGGTSLCTVDVAGSFGRQLAAQGEAAMQDFAIEWLGKLFGSDIAGAVERKAVTRWNEMPYVLGAMSAAEPGGQPSRKVLGEPLGNLFFAGEATHETLFGTVQGAWESGERAADAALKKIGAVKEPAPEKPVRKQKPRREPQRQREQRPPATASGTPSWWRLEHHHHHH”, for which the “soluble on expression in E. coli” value is “not soluble”.
